Target: human IL‐4Rα (human, UniProt P24394 26-232, N‐glycosylation sites (modelled in the crystal structure; positions not given))
Test: ITC

B1: dAb1 (VHH)
VHH: QVQLVESGGGLVQPGGSLRLSCAASGDFYCMAWFRQAPGKEREAVAAIRSGGRSTYYADSVKGRFTISRDNSKNTLYLQMNSLKAEDTAVYYCAVGVDGNCRNYWGQGTLVTVSS
  Kd: 2.55 nM
